From article PMC10003956, “To the Understanding of Catalysis by D-Amino Acid Transaminases: A Case Study of the Enzyme from Aminobacterium colombiense” (Molecules, 2023) come the findings set out here.

The test deals with D-amino acid transaminase from Aminobacterium colombiense (AmicoTA) (Aminobacterium colombiense). As to the kind of experiment: SEC; gel filtration of AmicoTA in solution (Figure S7); conditions not told for this experiment. (In general: SEC sorts molecules by how far they enter the pores of the column.)

In general, stoichiometry N refers to a count of units in the complex or per binding partner. The substance “D-amino acid transaminase from Aminobacterium colombiense (AmicoTA) (enzyme)” gave a stoichiometry N of 2.
